Test results from patent US20160075790A1 (Bristol-Myers Squibb, published 2016).
Residue numbers refer to the chain shown, from its start. “And” between values parts separate entries of the source, which are not always exact repeats. Equal values may be shown once. Read-outs that look alike come from different tables or passages of the source.

T1: human CD40L, membrane-bound on cells (human, UniProt P29965 1-261)
T1 sequence: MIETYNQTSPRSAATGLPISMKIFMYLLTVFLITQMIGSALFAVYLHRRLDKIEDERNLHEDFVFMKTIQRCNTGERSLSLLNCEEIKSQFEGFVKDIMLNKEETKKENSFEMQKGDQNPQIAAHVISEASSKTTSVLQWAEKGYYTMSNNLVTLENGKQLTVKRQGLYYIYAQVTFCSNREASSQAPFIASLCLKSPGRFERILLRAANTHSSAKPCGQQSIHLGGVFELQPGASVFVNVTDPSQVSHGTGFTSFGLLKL

T2: human isoleucine zipper-CD40L (IZ-hCD40L) (human, UniProt P29965 113-261)
T2 sequence: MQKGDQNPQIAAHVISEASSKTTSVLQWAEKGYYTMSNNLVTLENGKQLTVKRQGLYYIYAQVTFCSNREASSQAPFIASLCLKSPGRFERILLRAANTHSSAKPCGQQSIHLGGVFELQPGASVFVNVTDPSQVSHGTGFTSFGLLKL

T3: human CD40L monomer triple mutant (T211E, S222Y, H224K, [108-261]) (human, UniProt P29965 108-261)
T3 construct: also called monomeric human CD40L
T3 chain: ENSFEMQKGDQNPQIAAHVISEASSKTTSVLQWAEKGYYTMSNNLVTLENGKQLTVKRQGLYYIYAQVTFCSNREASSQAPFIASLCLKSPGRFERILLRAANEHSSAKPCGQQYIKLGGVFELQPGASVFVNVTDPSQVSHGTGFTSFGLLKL

B1: 2h572-6 Fc (Fc fusion, not shown: a dimerising Fc or GST)
chain: EVQLLESGGGLVQPGGSLRLSCAASGFTFNWQLMGWVRQAPGKGLEWVSGIEGPGDVTYYADSVKGRFTISRDNSKNTLYLQMNSLRAEDTAVYYCVKVGKESNSDYRGQGTLVTVSS
B2: BMS2h-572-630 (other)
VH: B1 chain with N30K, E102D, S103A, N104K
B3: 2h572-633 Fc (Fc fusion, not shown: a dimerising Fc or GST)
chain: B1 chain with Q32E, V37A, E102D, S103A, N104K
B4: 2h572-634 Fc (Fc fusion, not shown: a dimerising Fc or GST)
chain: B1 chain with Q32E, V37A, E102D, N104R
B5: BMS2h-572-622 (other)
VH: B1 chain with E102D, N104T
B6: 2h572-608-N297Qshort Fc (Fc fusion, not shown: a dimerising Fc or GST)
chain: B1 chain with Q32E, V37A
B7: 2h572-635 Fc (Fc fusion, not shown: a dimerising Fc or GST)
chain: B1 chain with Q32E, V37A, E102D, N104K
B8: BMS2h-572-616 (other)
VH: B1 chain with N104K
B9: 2h572-619-N297Qshort Fc (Fc fusion, not shown: a dimerising Fc or GST)
chain: B1 chain with E102D, N104R
B10: BMS2h-572-610 (other)
VH: B1 chain with E102D, N104K
B11: BMS2h-572-623 (other)
VH: B1 chain with N104S
B12: BMS2h-572-614 (other)
VH: B1 chain with E102D, S103A, N104K
B13: BMS2h-572-631 (other)
VH: B1 chain with N30K, E102D, N104R
B14: 2h572-619-N297Qlong Fc (Fc fusion, not shown: a dimerising Fc or GST)
chain: B1 chain with E102D, N104R
B15: 2h572-619-Ctshort Fc (Fc fusion, not shown: a dimerising Fc or GST)
chain: B1 chain with E102D, N104R
B16: 2h572-635-CT Long Fc (Fc fusion)
chain: B1 chain with Q32E, V37A, E102D, N104K
notes: not shown: linker and CT Long Fc (CT-L2)
B17: 2h572-633-CT-Fc SP5 (Fc fusion, not shown: a dimerising Fc or GST)
chain: B1 chain with Q32E, V37A, E102D, S103A, N104K
B18: BMS2h-572-617 (other)
VH: B1 chain with K101R, E102D, N104K
B19: BMS2h-572-608 (other)
VH: B1 chain with Q32E, V37A
B20: BMS2h-572-619 (other)
VH: B1 chain with E102D, N104R
B21: 2h572-608-CT Long Fc (Fc fusion)
chain: B1 chain with Q32E, V37A
notes: as for B16
B22: 2h572-6-CT Long Fc (Fc fusion)
chain: B1 chain
notes: as for B16
B23: 2h572-614-CT Long Fc (Fc fusion)
chain: B1 chain with E102D, S103A, N104K
notes: as for B16
B24: 2h116-1320-Fc (Fc fusion, not shown: a dimerising Fc or GST)
chain: DIQMTQSPSSLSAYVGDRVTITCRASQPIGPDLLWYQQKPGKAPKLLIYQTSILRSGVPSRFSGSGSETDFTLTISNLQPEDFAKYYCQQYWAFPVTFGQGTKVVIKR
B25: 2h719-2 Fc (Fc fusion, not shown: a dimerising Fc or GST)
chain: EVQLLESGGGLVQPGGSLRLSCAASGFTFKRYEMMWVRQAPGKGLEWVSSISSDGSFTYYADSVKGRFTISRDNSKNTLYLQMNSLRAEDTAVYYCAEPFTEFDYWGHGTLVTVSS
B26: 2h719-202-N297Qshort Fc (Fc fusion, not shown: a dimerising Fc or GST)
chain: B25 chain with R31K
B27: 2h503-1 Fc (Fc fusion, not shown: a dimerising Fc or GST)
chain: DIQMTQSPSSLSASVGDRVTITCRASHHIQRYLSWYQQKPGKAPKLLILWGSQLQSGVPSRFSGSGSGTDFTLTISSLQPEDFATYYCGQWWAPPQTFGQGTKVEIKR

Columns and labels:
[1] = target: T1, human CD40L, membrane-bound on cells; experiment: cell-based or functional assay
[2] = target: human isoleucine zipper-CD40L (IZ-hCD40L) (human) (UniProt P29965); experiment: cell-based or functional assay
[3] = target: T2, human isoleucine zipper-CD40L …; experiment: cell-based or functional assay
[4] = target: T1, human CD40L, membrane-bound on cells; experiment: cell-based or functional assay; remark: listed apart in the source
[5] = target: T2, human isoleucine zipper-CD40L …; experiment: cell-based or functional assay; remark: listed apart in the source
[6] = target: T1, human CD40L, membrane-bound on cells; experiment: cell-based or functional assay; remark: listed apart in the source
[7] = target: T3, human CD40L monomer triple mutant …; experiment: SPR; dAb-CT-long captured on anti-human IgG Fc surface, CD40L monomer as analyte

| Binder | CHO-hCD40L-driven DC Activation IL-12 EC50 [1] | CHO-hCD40L-driven Human B Cell Proliferation EC50 [1] | T-B cell MLR EC50 [1] | hIZCD40L-driven Human B Cell Proliferation EC50 [2] | hIZCD40L-driven Human B Cell Proliferation EC50 [3] | CHO-hCD40L-driven DC Activation IL-12 EC50 [4] | further results |
| --- | --- | --- | --- | --- | --- | --- | --- |
| B1 | 0.22 nM | 3 nM | 1.9 nM | 0.6 nM |  |  |  |
| B2 |  |  |  |  | 103 nM | 246 nM |  |
| B3 | 0.34 nM | 3 nM | 0.15 nM | 3.5 nM |  |  | T-B cell MLR IL-6 EC50 [1]: 0.11 nM |
| B4 | 0.42 nM | 3.5 nM | 0.23 nM | 3 nM |  |  | T-B cell MLR IL-6 EC50 [1]: 0.19 nM |
| B5 |  |  |  |  | 301 nM and 293 nM | 281 nM | T-B cell MLR EC50 [4]: > 7000 nM |
| B6 | 0.93 nM | 2 nM |  | 1 nM |  |  |  |
| B7 | 0.445 nM | 2.5 nM | 0.16 nM | 2 nM |  |  | T-B cell MLR IL-6 EC50 [1]: 0.11 nM |
| B8 |  |  |  |  | 204 nM and 340 nM | 608 nM | T-B cell MLR EC50 [4]: > 7000 nM |
| B9 | 1.2 nM | 1 nM | 0.226 nM and 0.216 nM | 0.9 nM |  |  | T-B cell MLR IL-6 EC50 [1]: 0.1 nM |
| B10 |  |  |  |  | 109 nM | 207 nM | T-B cell MLR EC50 [4]: > 7000 nM |
| B11 |  |  |  |  | 181 nM and 261 nM | 280 nM | T-B cell MLR EC50 [4]: > 7000 nM |
| B12 |  |  |  |  | 93 nM | 135 nM | T-B cell MLR EC50 [4]: > 7000 nM |
| B13 |  |  |  |  | 108 nM | 230 nM |  |
| B14 | 1.1 nM | 2 nM | 0.48 nM and 0.474 nM | 0.98 nM |  |  | T-B cell MLR IL-6 EC50 [1]: 0.22 nM and 0.11 nM |
| B15 | 1.8 nM | 2 nM | 0.4 nM | 1.5 nM |  |  | T-B cell MLR IL-6 EC50 [1]: 0.3 nM |
| B16 |  |  |  |  |  |  | hIZCD40L-driven Human B Cell Proliferation EC50 [5]: 3 nM; CHO-hCD40L-driven DC Activation IL-12 EC50 [6]: 1.6 nM; CHO-hCD40L-driven Human B Cell Proliferation EC50 [6]: 2 nM; T-B cell MLR EC50 [6]: 0.149 nM; T-B cell MLR IL-6 EC50 [6]: 0.13 nM; binding result [7]: no binding |
| B17 | 2.3 nM | 1 nM | 0.161 nM | 5 nM |  |  | CHO-hCD40L-driven DC Activation IL-6 EC50 [1]: 1.5 nM; CHO-hCD40L-driven DC Activation TNF EC50 [1]: 2.9 nM; T-B cell MLR IL-6 EC50 [1]: 0.13 nM |
| B18 |  |  |  |  | 157 nM and 189 nM | 338 nM | T-B cell MLR EC50 [4]: > 7000 nM |
| B19 |  |  |  |  | 96 nM | 152 nM | T-B cell MLR EC50 [4]: > 7000 nM |
| B20 |  |  |  |  | 90 nM | 188 nM | T-B cell MLR EC50 [4]: > 7000 nM |
| B21 |  |  |  |  |  |  | hIZCD40L-driven Human B Cell Proliferation EC50 [5]: 2 nM; CHO-hCD40L-driven DC Activation IL-12 EC50 [6]: 1.6 nM; CHO-hCD40L-driven Human B Cell Proliferation EC50 [6]: 2 nM; T-B cell MLR EC50 [6]: 0.468 nM; T-B cell MLR IL-6 EC50 [6]: 0.38 nM; binding result [7]: no binding |
| B22 |  |  |  |  |  |  | hIZCD40L-driven Human B Cell Proliferation EC50 [5]: 1 nM; CHO-hCD40L-driven DC Activation IL-12 EC50 [6]: 3 nM; CHO-hCD40L-driven Human B Cell Proliferation EC50 [6]: 6 nM; T-B cell MLR EC50 [6]: 13.6 nM; T-B cell MLR IL-6 EC50 [6]: 8.1 nM; binding result [7]: no binding |
| B23 |  |  |  |  |  |  | hIZCD40L-driven Human B Cell Proliferation EC50 [5]: 2 nM; CHO-hCD40L-driven DC Activation IL-12 EC50 [6]: 1.4 nM; CHO-hCD40L-driven Human B Cell Proliferation EC50 [6]: 2 nM; T-B cell MLR EC50 [6]: 0.283 nM; T-B cell MLR IL-6 EC50 [6]: 0.25 nM; binding result [7]: no binding |
| B24 | 14 nM | > 130 nM | 244 nM | 13 nM |  |  |  |
| B25 | 0.13 nM | 0.7 nM | 6 nM | 1 nM |  |  |  |
| B26 | 0.66 nM | 1.7 nM |  | 1.8 nM |  |  |  |
| B27 | 2.8 nM | 60 nM | 45 nM | 4 nM |  |  |  |
